Assay: soluble on expression in E. coli; label from the status in PepcDB or PDB records

Row | Sequence | soluble on expression in E. coli
1 | AAAMVPGRSESWERGEPGRPALYFCGSIRGGREDRTLYERIVSRLRRFGTVLTEHVAAAELGARGEEAAGGDRLIHEQDLEWLQQADVVVAEVTQPSLGVGYELGRAVAFNKRILCLFRPQSGRVLSAMIRGAADGSRFQVWDYEEGEVEALLDRYFEADPPGQV | not soluble
2 | AACKFLRRKCTSDCVFAPYFPPEEPTKFANVHRIFGASNVSKILHEVAPHQREDAVNSLAYEAEARLKDPVYGCVGAISVLQRQVLRLQRELEETNADLMRYAGCLGGETTSAYGGRRG | not soluble
3 | AAKRMKKRIKSATFFTTLLDFSQPGEVGAYINDTIISAIETQNNAKGYMDGRSLSVTFSLLRENSLYWNYYVDNYLKGNSPVDFDLLYWNSDSTNVSAASHNFLLRELYLENKLVQDKGVKIGGVWIDLNKIKIPSYFVSTKEDHIALWQGTYRGALHTGGNKTFVLGESGHIAGIVNHPAKNKYGYWLNDTLDDS | not soluble
4 | ADCSSDLTSGISTKRIYYVAPNGNSSNNGSSFNAPMSFSAAMAAVNPGELILLKPGTYTIPYTQGKGNTITFNKSGKDGAPIYVAAANCGRAVFDFSFPDSQWVQASYGFYVTGDYWYFKGVEVTRAGYQGAYVIGSHNTFENTAFHHNRNTGLEINNGGSYNTVINSDAYRNYDPKKNGSMADGFGPKQKQGPGNRFVGCRAWENSDDGFDLFDSPQKVVIENSWAFRNGINYWNDSAFAGNGNGFKLGGNQAVGNHRITRSVAFGNVSKGFDQNNNAGGVTVINNTSYKNGINYGFGSNVQSGQKHYFRNNVSLSASVTVSNADAKSNSWDTGPAASASDFVSLDTSLATVSRDNDGTLPETSLFRLSANSKLINAGTKESNISYSGSAPDLGAFERN | soluble
5 | ADEVAQTLAKVLTESSMPRENLLLSSFSHDVIRALYQHCEGYRLGVLSEFFTKKDGLLLDEVKAYSCNLNINWVRSRQIIKLQEAGYKVMCYTVNNPNKLKHLPQLDGIFSDHPKRFMQ | not soluble
6 | AEDIFGELFNEANNFYIRANSLQDRIDRLAVKVTQLDSTVEEVSLQDINMKKAFKSSTVQDQQVVSKNSIPNPVADIYNQSDKPPPLNILTPYRDDKKDGLKFYTDPSYFFDLWKEKMLQDTEDKRKEKRRQKEQKRIDGTTREVKKVRKARNRRQEWNMMAYDKELRPDNRLSQSVYHGASSEGSLSPDTRSHASDVTDYSYPATPNHSLHPQPVTPSYAAGDVPPHGPASQAAEHEYRPPSASARHMALNRPQQPPPPPPPQAPEGSQASAPMAPADYGMLPAQIIEYYNPSGPPPPPPPPVIPSAQTAFVSPLQMPMQPPFPASASSTHAAPPHPPSTGLLVTAPPPPGPPPPPPGPPGPGSSLSSSPMHGPPVAEAKRQEPAQPPISDARSDLLAAIRMGIQLKKVQEQREQEAKREPVGNDVATILSRRIAVEYSDSDDDSEFDENDWSD | soluble
7 | AEHSHESTLVQAGERIHITAQGVSAIETIDTRTISDAWQYRHLVVQNRPLTEVLDELNRHRRGHILYDRAQLQGIDMAVVLPLDDTDRALQLLVDSLPMIRIRTLTPYLVLVDLAPA | not soluble
8 | AENDKPQYLSDWWHQSVNVVGSYHTRFGPQIRNDTYLEYEAFAKKDWFDFYGYADAPVFFGGNSDAKGIWNHGSPLFMEIEPRFSIDKLTNTDLSFGPFKEWYFANNYIYDMGRNKDGRQSTWYMGLGTDIDTGLPMSLSMNVYAKYQWQNYGAANENEWDGYRFKIKYFVPITDLWGGQLSYIGFTNFDWGSDLGDDSGNAINGIKTRTNNSIASSHILALNYDHWHYSVVARYWHDGGQWNDDAELNFGNGNFNVRSTGWGGYLVVGYNFHHHHHH | soluble
9 | AETEKEKQDWIEAVQQSIAETLSDYEVAEKIWFNESNRSCADCKAPDPDWASINLCVVICKKCAGQHRSLGPKDSKVRSLKMDASIWSNELIELFIVIGNKRANDFWAGNLQKDEELHMDSPVEKRKNFITQKYKEGKFRKTLLASLTKEELNKALCAAVVKPDVLETMALLFSGADVMCATGDPVHSTPYLLAKKAGQSLQMEFLYHNKFSDFPQHDIHSEGVLSQESSQSTFLCDFLYQAPSAASKLSSEKKLLEETNKKWCVLEGGFLSYYENDKSTTPNGTININEVICLAIHKEDFYLNTGPIFIFEIYLPSERVFLFGAETSQAQRKWTEAIAKHFVPLFAENLTEADYDLIGQLFYKDCHALDQWRKGWFAMDKSSLHFCLQMQEVQGDRMHLRRLQELTISTMVQNGEKLDVLLLVEKGRTLYIHGHTKLDFTVWHTAIEKAAGTDGNALQDQQLSKNDVPIIVNSCIAFVTQYGLGCKYIYQKNGDPLHISELLESFKKDARSFKLRAGKHQLEDVTAVLKSFLSDIDDALLTKELYPYWISALDTQDDKERIKKYGAFIRSLPGVNRATLAAIIEHLYRVQKCSEINHMNAHNLALVFSSCLFQTKGQTSEEVNVIEDLINNYVEIFEVKEDQVKQMDIENSFITKWKDTQVSQAGDLLIEVYVERKEPDCSIIIRISPVMEAEELTNDILAIKNIIPTKGDIWATFEVIENEELERPLHYKENVLEQVLRWSSLAEPGSAYLVVKRFLTADTIKHCSDRSTLGSIKEGILKIKEEPSKILSGNKFQDRYFVLRDGFLFLYKDVKSSKHDKMFSLSSMKFYRGVKKKMKPPTSWGLTAYSEKHHWHLCCDSSQTQTEWMTSIFIAQHEYDIWPPAGKERKRSITKNPKIGGLPLIPIQHEGNATLARKNIESARAELERLRLSEKCDKESVDSSLKERASMVAHCLEHKDDKLRNRPRKHRSFNCLEDTEPEAPLGQPKGHKGLKTLRKTEDRNSKATLDSDHKLPSRVIEELNVVLQRSRTLPKELQDEQILK | soluble
10 | AEVPLPQLRAYTVDASWLQPMAPLQIADHTWQIGTEDLTALLVQTPDGAVLLDGGMPQMASHLLDNMKARGVTPRDLRLILLSHAHADHAGPVAELKRRTGAKVAANAESAVLLARGGSDDLHFGDGITYPPANADRIVMDGEVITVGGIVFTAHFMAGHTPGSTAWTWTDTRNGKPVRIAYADSLSAPGYQLQGNPRYPHLIEDYRRSFATVRALPCDVLLTPHPGASNWDYAAGARAGAKALTCKAYADAAEQKFDGQLAKETAGAR | soluble
11 | AFKQLMFPFGMDSKMESGIVMPTTQFWNPIAINNVEAQNDFYSRENLAALKLLQKQAQEPEKLARLLEVYHESLGYNIVRRAEEAKVALSDQTAYCTGINLLSELIEVDVQRDEMIEAIESPKNKMTALVTEAVEQAGVKPDAIFMTGGSARSPILRDAVQTVLPNIPVVSGNYFGSVTAGLARWADVCFK | not soluble
12 | AFVQEPLPFDPGALEPYGMSAKTLEFHYGKHHKGYVDNLNKLTQDTELADKSLEDVIRTTYGDAAKVGIFNNAAQVWNHTFFWNSLKPGGGGVPTGDVAARINSAFGSYDEFKAQFKNAAATQFGSGWAWLVLEAGTLKVTKTANAENPLVHGQVPLLTIDVWEHAYYLDYQNRRPDFIDNFLNQLVNWDFVAKNLAAA | soluble
13 | AGHMADGELNVDSLITRLLEVRGCRPGKIVQMTEAEVRGLCIKSREIFLSQPILLELEAPLKICGDIHGQYTDLLRLFEYGGFPPEANYLFLGDYVDRGKQSLETICLLLAYKIKYPENFFLLRGNHECASINRIYGFYDECKRRFNIKLWKTFTDCFNCLPIAAIVDEKIFCCHGGLSPDLQSMEQIRRIMRPTDVPDTGLLCDLLWSDPDKDVQGWGENDRGVSFTFGADVVSKFLNRHDLDLICRAHQVVEDGYEFFAKRQLVTLFSAPNYCGEFDNAGGMMSVDETLMCSFQILKPSEKKAKYQYGGLNSGRPVTPPRTANPPKKR | soluble
14 | AGHMTSILSRNHVKVKGSGKASIMFAPGFGCDQSVWNAVAPAFEEDHRVILFDYVGSGHSDLRAYDLNRYQTLDGYAQDVLDVCEALDLKETVFVGHSVGALIGMLASIRRPELFSHLVMVGPSPCYLNDPPEYYGGFEEEQLLGLLEMMEKNYIGWATVFAATVLNQPDRPEIKEELESRFCSTDPVIARQFAKAAFFSDHREDLSKVTVPSLILQCADDIIAPATVGKYMHQHLPYSSLKQMEARGHCPHMSHPDETIQLIGDYLKAHV | soluble
15 | AGKPDWDWQPAPKNEALIAAVSAAAQEGLNAAYQIREKQARTTKLREVYAAVQAAMAEQAAQAGQPAPDSVGVDNILFDLEARIVRSQILNGEPRIDGRDTRTVRP | not soluble
16 | AGKTLYGKLWDIHEVARRDDGSSLIYIDRHILHEVTSPQAFEGLRLAGRPLWRVNANIATPDHNVPTTKAERQGSLLSIADTVSRLQVQTLDENCDDFGIFEFKMNDVRQGIVHVIGPEQGATLPGMTVVCGDSHTSTHGAFGALAHGIGTSEVEHVLATQCLVTQKMKN | not soluble
17 | AHHHHHHASAKWVCKICGYIYDEDAGDPDNGISPGTKFEELPDDWVCPICGAPKSEFEKLEDGSNPMPRKISFDPPSFIQLTRKQNKELLEFVLAEFEIYLPITTVHAYLLAKAFKGKNPKEEVQKLRDIVKIVDLTDELLGEIAEIDASLIKDGYFFTLEDLITAVSAITSKSLLVVNGNAEKYSPLRKYGLDCVNYEKFLEEVEVLAREEAKREKII | soluble
18 | AHHHHHHASAKWVCKICGYIYDEDAGDPDNGISPGTKFEELPDDWVCPICGAPKSEFEKLEDGSRGAYILLLYLPRNSIIKTKGKVFRLKKGYYAYVGSGMNSLEGRVLRHLRKDKKLHWHIDYLTLIATPLKAYLVPSPVRIEEELSKSLNMVGKVVKGFGSSDLSVPGNLFFFDKDPSEKIEEIVWAFLSRKPKSDDLRQDTS | soluble
19 | AHHHHHHGSAKLKEPIIAINFKTYIEATGKRALEIAKAAEKVYKETGVTIVVAPQLVDLRMIAESVEIPVFAQHIDPIKPGSHTGHVLPEAVKEAGAVGTLLNHSENRMILADLEAAIRRAEEVGLMTMVCSNNPAVSAAVAALNPDYVAVEPPELIGTGIPVSKAKPEVITNTVELVKKVNPEVKVLCGAGISTGEDVKKAIELGTVGVLLASGVTKAKDPEKAIWDLVSGIIKE | soluble
20 | AHHHHHHGSDIKPGKITVQANPNMPEEIANLFRKQHYELVGRHSGVKLCHWLKKSLTEGRFCYKQKFYGIHSHRCLQMTPVLAWCTHNCIFCWRPMETFLGTEVPEPWDDPAFIVEESIKAQRKLLVGYKGNPKVDKKKFEEAWEPKHAAISLSGEPMLYPYMGDLVEEFHKRGFTTFIVTNGTVPESLREMIKDDKLPTQLYVSLTAPDIESYNKVNIPMIPDGWEKILEFLELMRDIPTRTVVRLTLVKGENMHNPEGYARLIMKARPMFVEAKAYMFVGFSRNRLTINNMPSHEDIREFAEALVKYLPGYHIEDEYEPSRVVLIMRDDVDPSGTGLEGRFIKH | not soluble
21 | AHHHHHHGSDWKGRDVISIRDFSKEDIEIVLSTAERLEKELKEKGQLEYARGKILATLFFEPSTRTRLSFESAMHRLGGAVIGFAEASTSSVKKGESLADTIKTVEQYSDVIVIRHPKEGAARLAAEVAEIPVINAGDGSNQHPTQTLLDLYTIRKEFGKIDGLKIGLLGDLKYGRTVHSLAEALAYYDVELYLISPELLRMPRHIVEELREKGVTVYETSDLMSVIGELDVLYVTRIQKERFPDEQEYLKVRGSYQVNLQVLSKAKETLKVMHPLPRVDEIHPEVDKTKHAIYFKQVFNGIPVRMALLGLVLGVI | soluble
22 | AHHHHHHGSEELIREVILKNLTLNSAGGIGLEELDDGATIPLGDKHLVFTIDGHTVKPIFFPGGDIGRLAVSGTVNDLAVMGAQPLAIASSLIIEEGFEVSELEKILKSMDETAKEVPVPIVTGDTKVVEDRIGIFVITAGVGVAERPISDAGAKVGDVVLVSGTIGDHGIALMSHREGISFETELKSDVAPIWDVVKAVADAIGWENIHAMKDPTRGGLSNALNEMARKANVGILVREEAIPIRPEVKAASEMLGISPYEVANEGKVVMIVAKEYAEEALEAMKKTEKGRDAAIIGEVIGEYRGKVILETGIGGRRFLEPPLGDPVPRVC | soluble

From the DeepSol protein solubility set
